Results as given in patent US9618524B2, “Method, composition, isolation and identification of a plaque particle and related biomarker” (Plaxgen Inc., priority 2012, dated 2017).

What was measured:
Test in all cases: Mass spectroscopy proteomics, semi-quantitative binding affinity of serum proteins (plaqueproteome, Table 2)
Details in all cases: higher number = stronger affinity
[1] = biological target: T1, Abeta-42 plaque particles (Homo sapiens, UniProt P05067)
T1 construct: Abeta 1-42
Procedure, shortened: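 AD patient serum or plasma (50% in PBS) was incubated with Abeta-42 aggregates (30 μg) for 1 h at 37 °C, then stained with Thioflavin S for 30 min. Labeled particles were FACS-sorted, trypsin/Lys-C digested overnight and analyzed by MS/MS. Sequest searched human UniProt; Scaffold/Protein Prophet validated the identifications.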

[2] = biological target: T2, alpha-synuclein plaque particles (Homo sapiens, UniProt P37840)
T2 construct: 140 amino acids polypeptide
Procedure, shortened: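 AD-subject plasma or serum (800 μL of 50%) mixed with 30 μg preformed alpha-synuclein aggregates for 1 h at 37 °C; Thioflavin S-positive particles isolated by flow sorting. After reduction, acrylamide alkylation and overnight tryptic digestion, serum proteins identified by MS/MS with Sequest and Scaffold.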

[3] = system: High Density cholesterol (Chl Large) plaque particles; set-up: species or system human
Procedure, shortened: (§1)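 Serum or plasma from atherosclerotic subjects, diluted to 50% in PBS, was incubated with cholesterol aggregates (30 μg per 1 mL reaction) at 37° C for 1 hr. Small and large cholesterol plaque particles were sorted by flow cytometry gating, trypsin-digested and analysed by MS/MS against a human UniProt database.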

[4] = system: Low density cholesterol (Chl small) plaque particles; set-up: species or system human
Procedure, shortened: as §1

[5] = system: Tau plaque particles; set-up: species or system human
Procedure, shortened: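 Synthetic Tau-74 and Tau-275 peptides (1 mg/mL PBS, 37° C, 2 h) aggregated; 30 μg aggregates incubated with 50% serum/plasma 1 h at 37° C, stained with Thioflavin S, and plaque particles sorted by flow cytometry. Bound proteins trypsin-digested and identified by MS/MS against human UniProt.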

| Molecule | Semi-quantitative analysis of proteins binding to different plaque particles: Abeta-42 [1] | Semi-quantitative analysis of proteins binding to different plaque particles: Synuclein [2] | Semi-quantitative analysis of proteins binding to different plaque particles: Chl Large [3] | Semi-quantitative analysis of proteins binding to different plaque particles: Chl small [4] | Semi-quantitative analysis of proteins binding to different plaque particles: Tau [5] |
| --- | --- | --- | --- | --- | --- |
| Isoform LMW of Kininogen-1 (protein) QESQSEEIDCNDKDLFKAVDAALKKYNSQNQSNNQFVLYRITEATKTVGSDTFYSFKYEIKEGDCPVQSGKTWQDCEYKDAAKAATGECTATVGKRSSTKFSVATQTCQITPAEGPVVTAQYDCLGCVHPISTQSPDLEPILRHGIQYFNNNTQHSSLFMLNEVKRAQRQVVAGLNFRITYSIVQTNCSKENFLFLTPDCKSLWNGDTGECTDNAYIDIQLRIASFSQNCDIYPGKDFVQPPTKICVGCPRDIPTNSPELEETLTHTITKLNAENNATFYFKIDNVKKARVQVVAGKKYFIDFVARETTCSKESNEELTESCETKKLGQSLDCNAEVYVVPWEKKIYPTVNCQPLGMISLMKRPPGFSPFRSSRIGEIKEETTSHLRSCEYKGRPPKAGAEPASEREVS | 0 | 6 | 4 | 8 | 1 |
| Cluster of Kininogen-1 (protein, UniProt P01042 19-644, looked up) Kininogen-1: QESQSEEIDCNDKDLFKAVDAALKKYNSQNQSNNQFVLYRITEATKTVGSDTFYSFKYEIKEGDCPVQSGKTWQDCEYKDAAKAATGECTATVGKRSSTKFSVATQTCQITPAEGPVVTAQYDCLGCVHPISTQSPDLEPILRHGIQYFNNNTQHSSLFMLNEVKRAQRQVVAGLNFRITYSIVQTNCSKENFLFLTPDCKSLWNGDTGECTDNAYIDIQLRIASFSQNCDIYPGKDFVQPPTKICVGCPRDIPTNSPELEETLTHTITKLNAENNATFYFKIDNVKKARVQVVAGKKYFIDFVARETTCSKESNEELTESCETKKLGQSLDCNAEVYVVPWEKKIYPTVNCQPLGMISLMKRPPGFSPFRSSRIGEIKEETTVSPPHTSMAPAQDEERDSGKEQGHTRRHDWGHEKQRKHNLGHGHKHERDQGHGHQRGHGLGHGHEQQHGLGHGHKFKLDDDLEHQGGHVLDHGHKHKHGHGHGKHKNKGKKNGKHNGWKTEHLASSSEDSTTPSAQTQEKTEGPTPIPSLAKPGVTVTFSDFQDSDLIATMMPPISPAPIQSDDDWIPDIQIDPNGLSFNPISDFPDTTSPKCPGRPWKSVSEINPTTQMKESYYFDLTDGLS | 0 | 6 | 4 | 8 | 1 |
| Kininogen-1 (protein) QESQSEEIDCNDKDLFKAVDAALKKYNSQNQSNNQFVLYRITEATKTVGSDTFYSFKYEIKEGDCPVQSGKTWQDCEYKDAAKAATGECTATVGKRSSTKFSVATQTCQITPAEGPVVTAQYDCLGCVHPISTQSPDLEPILRHGIQYFNNNTQHSSLFMLNEVKRAQRQVVAGLNFRITYSIVQTNCSKENFLFLTPDCKSLWNGDTGECTDNAYIDIQLRIASFSQNCDIYPGKDFVQPPTKICVGCPRDIPTNSPELEETLTHTITKLNAENNATFYFKIDNVKKARVQVVAGKKYFIDFVARETTCSKESNEELTESCETKKLGQSLDCNAEVYVVPWEKKIYPTVNCQPLGMISLMKRPPGFSPFRSSRIGEIKEETTVSPPHTSMAPAQDEERDSGKEQGHTRRHDWGHEKQRKHNLGHGHKHERDQGHGHQRGHGLGHGHEQQHGLGHGHKFKLDDDLEHQGGHVLDHGHKHKHGHGHGKHKNKGKKNGKHNGWKTEHLASSSEDSTTPSAQTQEKTEGPTPIPSLAKPGVTVTFSDFQDSDLIATMMPPISPAPIQSDDDWIPDIQIDPNGLSFNPISDFPDTTSPKCPGRPWKSVSEINPTTQMKESYYFDLTDGLS | 0 | 4 | 3 | 7 | 1 |
